For series [1], the target named is T1, cJun bZIP (human, UniProt P05412 252-308, limits assumed).
T1 construct: Purified from a His-SUMO fusion with the tag cleaved off; also called c-Jun bZIP domain; 60 amino acid c-Jun bZIP construct
T1 chain: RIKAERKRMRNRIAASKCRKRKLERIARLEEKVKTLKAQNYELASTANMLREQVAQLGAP
Description: CD spectra at 20 °C.

The target in series [2] is T1, cJun bZIP. Kind of series: cell-based or functional assay.
Series [3] concerns the target T2, cJun bZIP/TRE DNA interaction (transcriptional block of TRE-mDHFR) (Homo sapiens, UniProt P05412, S292Y).
T2 construct: expressed in transfected cells; host or cells: E. coli BL21 Gold carrying pES300d-TRE-mDHFR and pES230d-cJun bZIP
Kind of series: Transcription Block Survival (TBS) assay: colony counting and growth competition in E. coli. The class given is cell-based. The note with it: vs transcriptionally blocked cells (TRE-mDHFR + cJun bZIP). An excerpt: Library Construction and TBS Assay: Library inserts were produced using PCR fill-in reactions from synthesised primers (Sigma) with degenerate codons at the desired positions to produce the correct residue options. The library was subcloned using SacI and AscI sites into the pET24a plasmid containing A-FosW. The primers used were cJun-Hinge-Lib-F: 5′-[…] TATGCC-3′ (SEQ ID NO: 49) and cJun-Hinge-Lib_R: 5′-[…] GTTC-3′ (SEQ ID NO: 50). The library DNA was transformed into NEB 10-beta electrocompetent E. coli cells. The following equation was utilised to determine library coverage by the number of single colonies: E=100×(1−1/n)^m where E is the percentage of the library missing, m is the number of colonies collected and n is the library size. […] Library DNA quality was assessed by sequencing both the DNA pool and a number of single colonies to show degenerate codons in the correct positions in the pool and to show a diversity of library members from single colonies. The pool of library DNA was transformed into BL21 Gold cells already containing pES300d-TRE-mDHFR and pES230d-cJun bZIP.
Selective pressure is applied by growing the bacteria in M9 minimal media with TMP (2-4 μM) alongside ampicillin, kanamycin and chloramphenicol to maintain the required plasmids, and IPTG (1 mM) to induce protein expression. The library transformants were first plated out onto selective agar plates (2 μM TMP) and grown at 37° C. for 72-96 h. Optimisation experiments (FIG. 5) indicate that 4 μM TMP is optimum for selection however a lower stringency is used initially before selection is increased in later steps. Colonies from this first round of selection were pooled and serially grown in liquid culture at starting OD600 of 0.05 and grown at 37° C. with shaking at 200 rpm until the OD600 reached 0.6. TMP concentration was 2 μM in the first liquid culture passage before it was increased to the optimum 4 μM in subsequent passages. […] At each passage step, a sample of the culture was plated on LB agar (supplemented with antibiotics to maintain plasmids) to select and sequence individual colonies, and a DNA pool was also sequenced. This allows the occurrence of library members to be monitored as winner sequences are selected for. Assay Validation experiments utilised a modified assay methodology whereby overnight cultures from glycerol stocks of the Control Strains (Table 2) were diluted to OD600=0.5 and 50 μL was plated on a selective M9 minimal medium agar plate.
Transcription block survival (TBS) is an intracellular assay that utilises cell survival as a readout. […] This enzyme is absolutely essential for survival since it is required for the production of purines needed for DNA and amino acid synthesis. […]. We produced a mDHFR gene (FIGS. 2 and 3) by rational design to introduce 15 TRE sites into the coding DNA sequence to allow a robust cJun transcriptional block whilst minimising alteration to the expressed protein (TRE-mDHFR). In particular, the resulting TRE-mDHFR construct was produced via two silent and thirteen conservative mutations. […] The accessible surface areas of all other amino acid residues were calculated using the ‘Accessible Surface Area and Accessibility Calculation for Protein’ tool (http://cib.cf.ocha.ac.jp/bitool/ASA/). […]

The subject of a further series is TRE DNA. Description: CD control: peptide with TRE DNA. The class given is binding.
Series [4] addresses T1, cJun bZIP.
Series [5] deals with T1, cJun bZIP. Description: ITC, antagonist injected into cJun, one site model. For orientation: In ITC the heat of successive injections is recorded.
A further series deals with cJun (Homo sapiens, UniProt P05412, S292Y). Kind of series: CD dimer exchange experiments. Conditions: A-FosW mixed with preformed HingeW/cJun heterodimer.
The target in series [6] is cJun bZIP (Homo sapiens, UniProt P05412, S292Y). Description: CD spectra and thermal denaturation of peptide/cJun heterodimers.
Series [7] is described as follows: CD spectra and thermal denaturation of peptide-only samples (helicity, homodimer Tm).
Description: Circular Dichroism (CD): An Applied Photophysics Chirascan was used for CD measurements, with a 200 μL sample in a 1 mm path length CD cell. Protein/DNA samples were suspended in 150 mM potassium phosphate, 150 mM potassium fluoride and 5 mM TCEP at pH 7.4 and were equilibrated for 30 minutes before measurement. […] These scans were averaged and converted to molar residue ellipticities (MRE). Thermal denaturation experiments were performed by measuring the ellipticity at 222 nm over a 1 to 90° C. gradient at 1° C. increments. Post-melt scans at 20° C. confirmed the transitions were reversible as they overlaid within 10% of the pre-melt scan.
Circular Dichroism (CD): An Applied Photophysics Chirascan was used for CD measurements, with a 200 μL sample in a 1 mm path length CD cell. Protein/DNA samples were suspended in 150 mM potassium phosphate, 150 mM potassium fluoride and 5 mM TCEP at pH 7.4 and were equilibrated for 30minutes before measurement. […] Thermal denaturation experiments were performed by measuring the ellipticity at 222 nm over a 1 to 90° C. gradient at 1° C. increments. Post-melt scans at 20° C. confirmed the transitions were reversible as they overlaid within 10% of the pre-melt scan.
Peptide helicity was determined by quantifying the CD signal at 222 nm of peptide only samples. Thermal denaturation experiments were then used to determine the Tm of peptide-c-Jun heterodimers, which was used as an approximate measure of target engagement. […] The same 60 amino acid c-Jun bZIP construct was used for all experiments, regardless of antagonist peptide length.
The target of a further series is T3, HingeW (synthetic construct).
T3 chain: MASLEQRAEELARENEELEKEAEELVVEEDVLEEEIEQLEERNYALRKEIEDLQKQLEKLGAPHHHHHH
Kind of series: CD, DNA spectrum unchanged. Conditions: tags: C-terminal 6xHis.

For a further series, the target named is T4, A-FosW (synthetic construct).
T4 chain: T3 chain with V26E, V27Q, E29L, V31E, E33Q, E34A
Description: CD, DNA spectrum unchanged. Conditions: tags: C-terminal 6xHis.

Residue numbers refer to the chain shown, from its start. Where two headings read alike, the source gives them in different places.

B1: A-FosW (peptide)
peptide: T3 chain with V26E, V27Q, E29L, V31E, E33Q, E34A
notes: Recombinant, capped and C-terminally 6xHis-tagged; also called rationally designed A-FosW template; parent peptide
B1: the Tm (° C.) (CD) came to 45.1 ° C. In addition, in the series with cJun bZIP [1], the “increase in α-helicity relative to the average of the two component spectra” value worked out at 39%. In the series with cJun bZIP [2], the “IC50, CD antagonism of cJun/TRE DNA (peak at ~281 nM)” value stood at 16 µM; the “IC50, EMSA of free TRE DNA band” value is 12.1 µM; the “TBS assay colony numbers relative to TRE-mDHFR only” value worked out at 60%. Besides, the “effect on TRE-mDHFR transcriptional block / colony numbers” value in [3] was “restore cell survival”. For the same molecule, the “interaction with TRE DNA” value in the series on TRE DNA is “no interaction”. Besides, in the series with cJun bZIP [4], the “Tm (° C.) (CD)” value worked out at 69.9 ° C and the “ΔTm from component average (CD)” value worked out at 27.5 ° C. Further, in the series with cJun bZIP [5], the affinity, expressed as Kd, was 0.0883 µM; the “TΔS (ITC)” value is -26.9 kcal/mol; the “ΔG (ITC)” value is -9.56 kcal/mol; the “ΔH (ITC)” value is -36.5 kcal/mol. Also, the “dimer exchange” value with cJun was “no dimer exchange had occurred”. Besides, the “Fraction helicity at 20° C. (CD)” value with cJun bZIP [6] (heterodimer with c-Jun, equimolar, 10 μM total) came to 38.7%. For the same molecule, the “temperature of smaller initial transition (double transition)” value in the series with cJun bZIP [6] (heterodimer with cJun) was ~30 °C. Besides, the “Tm (° C.) (CD)” value with cJun bZIP [6] (heterodimer with cJun bZIP, Example 1) stood at 69.9 °C. The “ΔTm from component average (CD)” value with cJun bZIP [6] (heterodimer with cJun vs average of component profiles) came out at 27.5 °C. Also, in [7] (peptide alone), the “Fraction helicity at 20° C. (CD)” value is given as 40.1%. Moreover, in series [7] (peptide alone (homodimer)), the “Tm (° C.) (CD)” value worked out at 45.1 °C.

B2: TRE duplex (dsDNA)
DNA 1: GTCAGTCAGTGACTCAATCGGTCA
DNA 2: TGACCGATTGAGTCACTGACTGAC
As to B2, the binding result with HingeW and with A-FosW was “no binding” in each case.

These data come from US20250188151A1, “C-JUN ANTAGONIST PEPTIDES” (The University of Bath, priority 2022, published 2025).
